In patent publication US20230295310A1 (ABCELLERA BIOLOGICS, published 2023) one finds Kd data, which are given here for 20 molecules.

For one test, the target named is T1, human CD3e/d (human, UniProt P07766 23-126; P04234 22-105).
T1 construct: Bought soluble protein; also called hCD3e/d; human CD3/ed (Sino CT038-H2508H)
Description: SPR (Carterra LSA), mAb on chip. Summed up: (§1)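 Purified mAbs amine-coupled (EDC/S-NHS) at 10 μg/mL in 10 mM NaOAc pH 4.25 onto an HC-30M chip, with benchmark and negative-control mAbs; analyte flowed over the array. Double-referenced sensorgrams fitted globally to a 1:1 Langmuir model for ka, kd and KD.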

For another test, the target named is T2, human CD3e/g (human, UniProt P07766 23-126; P09693 23-116).
T2 construct: Bought soluble protein; also called hCD3e/g; human CD3e/g (Acro CDD-C52W4)
Description: SPR (Carterra LSA), mAb on chip. Summed up:
as §1

T1 sequence (P07766 23-126, chain 1 of 2): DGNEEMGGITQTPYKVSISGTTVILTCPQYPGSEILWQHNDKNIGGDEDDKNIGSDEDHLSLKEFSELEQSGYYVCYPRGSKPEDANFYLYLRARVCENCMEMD
T1 sequence (P04234 22-105, chain 2 of 2): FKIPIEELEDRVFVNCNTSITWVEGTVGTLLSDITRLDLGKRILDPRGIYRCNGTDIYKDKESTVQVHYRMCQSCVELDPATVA
T2 sequence (P07766 23-126, chain 1 of 2): as the sequence (P07766 23-126, chain 1 of 2) above
T2 sequence (P09693 23-116, chain 2 of 2): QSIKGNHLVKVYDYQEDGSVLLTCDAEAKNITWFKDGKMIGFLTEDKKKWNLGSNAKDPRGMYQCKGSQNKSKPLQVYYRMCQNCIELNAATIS

B1: mAb 212 (antibody, V domains shown)
VH: EVQLLESGGGLVQPGGSLRLSCAASGFTFSNYAMNWVRQAPGKGLEWVSAISGSRSNTYYADSVKGRFTISRDNSKNTLYLQMNSLRAEDTGVYYCAKGAYSKYPYYYYMDVWGKGTTVTVSS
VL: EIVMTQSPATLSLSPGERATLSCRASQSVSSSYLSWYQQKPGQAPRLLIYGASTRAIGIPARFSGSGSGTDFTLTISSLQAEDFAVYYCQQDDNLPWTFGQGTKVEIK
notes: VH and VL only
B1: the dissociation constant Kd with human CD3e/d came out at 11 nM; with human CD3e/g, 22 nM.

B2: mAb 214 (antibody, V domains shown)
VH: EVQLLESGGGLVQPGGSLRLSCAASGFTFSNYAMNWVRQAPGKGLEWVSAISGSRSNTYYADSVKGRFTISRDNSKNTLYLQMNSLRAEDTAVYYCAKGAYSKYPYYYYMDVWGKGTTVTVSS
VL: EIVMTQSPATLSLSPGERATLSCRASQSVSSSYLSWYQQKPGQAPRLLIYGASTRAIGIPARFSGSGSGTDFTLTISSLQAEDFAVYYCQQDDNLPWTFGQGTKVEIK
notes: VH and VL only
Turning to B2, the Kd was 13 nM with human CD3e/d and 25 nM with human CD3e/g.

B3: mAb 54 (antibody, V domains shown)
VH: EVQLEESGGGLVQPGGSLRLSCAASGFTFSRYSMNWVRQAPGKGLEWFSYISSSSRTIYYADSVKGRFTMSRDNAKNSLYLQMNSLRDEDTAVYFCARGDYYDSEGMDVWGKGTTVTVSS
VL: DIQMTQSPSTLSASVGDRVTITCRASQTITTWLAWYQQKPGKAPKLLIYKASTLESGVPSRFSGSGSGTEFTLTISSLQPDDFATYHCQQYKTFSYTFGQGTKLDIK
notes: VH and VL only
Consider B3, for which the figures for the Kd with human CD3e/d and in the test with human CD3e/g were 553 nM and 83.2 nM, respectively.

B4: mAb 206 (antibody, V domains shown)
VH: QVQLVESGGGVVQPGRSLRLSCAASGFTFSGYGMHWVRQAPGKGLEWVAIIYYNGNNRKYADSVKGRFTISRDNSKNTVSLQMNSLRVEDTAIYYCTRGDGYNWFVTWGQGTLVTVSS
VL: EIVMTQSPATLSVSPGERATLSCRASQSVSSNLAWYHQKPGQAPRLLIYGASTRATGIPVRFSGSGSGTEFTLTISSLQSEDFAVYYCQQYNNWPLTFGGGTKVEIK
notes: VH and VL only
Consider B4, for which the Kd is 73 nM with human CD3e/d and 33 nM in the test with human CD3e/g.

B5: mAb 195 (antibody, V domains shown)
VH: QEQLVESGGGVVQSGRSLRLSCVASGFKFSGYGMHWVRQAPGKGLEWVAIIYYDGKNKYYADSVKGRFTISRDNSKNTLYLQMNSLRAEDTAVYYCTRGAGYNWFDSWGQGTLVTVSS
VL: EIVMTQSPATLSVSPGERATLSCRASQSVRNNLAWYQQKPGQAPRLLIYGVSTRATAFPARFSGSGSGTEFTLTISSLQSEDFAVYYCQQYNNWPLTFGGGTKVEIK
notes: VH and VL only
B5: the dissociation constant (Kd) worked out at 11 nM in the test with human CD3e/d and 7.1 nM in the test with human CD3e/g.

B6: mAb 194 (antibody, V domains shown)
VH: QEQLVESGGGVVQPGGSLRLSCAASGFIFSGYGMHWVRQAPGKGLEWVAIIWYNGRKTYYAESVKGRFTISRDNSKNTLSLQMNSLRVEDTAVYYCTAGQGYNWFDPWGQGTLVTVSS
VL: EIVMTQSPATLSVSPGERATLSCRASQSVSSNLAWYQQKPGQAPRLLIYGASTRATGIPARFSGSGSGTEFTLTISSLQSEDFAVYYCQQFNAWPLTFGGGTKMEIK
notes: VH and VL only
As for B6, the Kd is 19 nM with human CD3e/d and 12 nM with human CD3e/g.

B7: mAb 196 (antibody, V domains shown)
VH: QEQLVESGGGVVQSGRSLRLSCVASGFKFSGYGMHWVRQAPGKGLEWVAIIYYDGKNKYYADSVKGRFTVSRDNSKNTLYLQMNSLRAEDTAVYYCTRGAGYNWFDSWGQGTLVTVSS
VL: EIVMTQSPATLSVSPGERATLSCRASQSVRNNLAWYQQKPGQAPRLLIYGVSTRATAFPARFSGSGSGTEFTLTISSLQSEDFAVYYCQQYNNWPLTFGGGTKVEIK
notes: VH and VL only
With B7, the Kd in the test with human CD3e/d is 6.9 nM; in the test with human CD3e/g it was 9.1 nM.

B8: mAb 193 (antibody, V domains shown)
VH: QVQLVESGGGVVQPGRSLRLSCAASGFTFSGYGMHWVRQAPGKGLEWVAIIYYNGNNRKYADSVKGRFTISRDNSKNTVSLQMNSLRVEDTAIYYCTRGDGYNWFVTWGQGTLVTVSS
VL: EIVMTQSPATLSVSPGERATLSCRASQSVSSNLAWYHQKPGQAPRLLIYGASTRATGIPVRFSGSGSGTEFTLTISSLQSDDFAVYYCQQYNNWPLTFGGGTKVEIK
notes: VH and VL only
Consider B8, for which the Kd was 93 nM with human CD3e/d and 29 nM with human CD3e/g.

B9: mAb 218 (antibody, V domains shown)
VH: QVQLVESGGGVVQPGRSLRLSCAASGFTFSGYGMHWVRQAPGKGLEWVAIIYYNGNNRKYADSVRGRFTISRDNSKNTVSLQMNSLRVEDTAIYYCTRGDGYNWFVTWGQGTLVTVSS
VL: EIVMTQSPATLSVSPGERATLSCRASQSVSSNLAWYYQKPGQAPRLLIYGASTRATGIPVRFSGSGSGTEFTLTISSLQSEDFAVYYCQQYNNWPLTFGGGTKVEIK
notes: VH and VL only
Take B9: the Kd with human CD3e/d was determined as 62 nM; with human CD3e/g, 34 nM.

B10: mAb 215 (antibody, V domains shown)
VH: QVQLVESGGGVVQPGRSLRLSCAATGFTFSGYGMHWVRQAPGKGLEWVAIIYYNGNNRKYADSVKGRFTISRDNSKNTVSLQMNSLRVEDTAIYYCTRGDGYNWFVTWGQGTLVTVSS
VL: EIVMTQSPATLSVSPGERATLSCRASQSVSSNLAWYRQKPGQAPRLLIYGASTRATGIPVRFSGSGSGTEFTLTISSLQSEDFAVYYCQQYNNWPLTFGGGTKVEIK
notes: VH and VL only
As to B10, the Kd with human CD3e/d is 76 nM; with human CD3e/g, 34 nM.

B11: mAb 226 (antibody, V domains shown)
VH: QVQLVESGGGVVQPGRSLRLSCAASGFTFSGYGMHWVRQAPGKGLEWVAIIYYNGNNRKYADSVKGRFTISRDNSKNTVSLQMNSLRVEDTAIYYCTRGDGYNWFVTWGQGTLVTVSS
VL: EIVMTQSPATLSVSPGERATLSCRASQSISSNLAWYHQKPGQAPRLLIYGASTRATGIPVRFSGSGSGTEFTLTISSLQSEDFALYYCQQYNNWPLTFGGGTKVEIK
notes: VH and VL only
For the molecule B11, the Kd with human CD3e/d was 75 nM; in the test with human CD3e/g, 32 nM.

B12: mAb 210 (antibody, V domains shown)
VH: QVQLVESGGGVVQPGRSLRLSCAASGFTFSGYGMHWVRQAPGKGLEWLAIIYYNGNNRKYADSVKGRFTISRDNSKNTVSLQMNSLRVEDTAMYYCTRGDGYNWFVTWGQGTLVTVSS
VL: EIVMTQSPATLSVSPGERAALSCRASQSVTSNLAWYHQKPGQAPRLLIYGASTRATGIPVRFSGSGSGTEFTLTISSLQSEDFAVYYCQQYNNWPLTFGGGTKVENK
notes: VH and VL only
Consider B12, for which the Kd with human CD3e/d came to 120 nM; with human CD3e/g it was 59 nM.

B13: mAb 217 (antibody, V domains shown)
VH: QVQLVESGGGVVQPGRSLRLSCAASGFTFSGYGMHWVRQAPGKGLEWVAIIYYNGKKEYYADSVKGRFTIFRDNSKNTVYLQMKSLRAEDTAVYYCTRGEGYNWFDPWGQGTLVTVSS
VL: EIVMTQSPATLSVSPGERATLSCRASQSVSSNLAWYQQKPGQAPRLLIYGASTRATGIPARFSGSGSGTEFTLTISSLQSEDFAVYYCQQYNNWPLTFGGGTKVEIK
notes: VH and VL only
For B13, the Kd in the test with human CD3e/d is 38 nM; with human CD3e/g it was 17 nM.

B14: mAb 65 (antibody, V domains shown)
VH: QVQLVESGGGVVQPGRSLRLSCAASGFTFSGYGMHWVRQAPGKGLDWVAIIYYNGNNKYYADSVKGRFTISRDNSKNTLYLQMNSLRAEDTAVYYCARGGGYNWFDPWGQGTLVIVSS
VL: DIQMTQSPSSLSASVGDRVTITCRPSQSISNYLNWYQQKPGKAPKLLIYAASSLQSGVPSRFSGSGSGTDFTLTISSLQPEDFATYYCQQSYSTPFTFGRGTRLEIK
notes: VH and VL only
For the molecule B14, the dissociation constant (Kd) with human CD3e/d came to 128 nM; with human CD3e/g, 101 nM.

B15: mAb 221 (antibody, V domains shown)
VH: QVQLVESGGGVVQPGGSLRLSCAASGFTFSGYGMHWVRQAPGKGLEWVAIIWYNGRKTYYAESVKGRFTISRDNSKNTLSLQMNSLRVEDTAVYYCTAGQGYNWFDPWGQGTLVTVSS
VL: EIVMTQSPATLSVSPGERATLSCRASQSVSSNLAWYQQKPGQAPRLLIYGASTRATGIPARFSGSGSGTEFTLTISSLQSEDFAVYYCQQFNAWPLTFGGGTKMEIK
notes: VH and VL only
With B15, the Kd with human CD3e/d amounted to 38 nM; with human CD3e/g, 25 nM.

B16: mAb 83 (antibody, V domains shown)
VH: QVQLVESGGGVVQPGRSLRLSCAASGFTFSGYGMHWVRQAPGKGLDWVAIIYYNGNNKYYADSVKGRFTISRDNSKNTLYLQMNSLRAEDTAVYYCARGGGYNWFDPWGQGTLVIVSS
VL: DIQMTQSPSSLSASVGDRVTITCRPSQIIINYLNWYQQKPGKAPKLLIYAASSLQSGVPSRFSGSGSGTDFTLTISSLQPEDFATYYCQQSYSTPFTFGRGTRLEIK
notes: VH and VL only
In the case of B16, the Kd stood at 86.5 nM with human CD3e/d and 53.4 nM with human CD3e/g.

B17: mAb 86 (antibody, V domains shown)
VH: QVQLAESGGGVVQPGRSLRLSCEASGFTFSGYGMHWVRQAPGKGLDWVAIIYYDGKNKYYADSVKGRFTISRDNSKNTLYLQMNSLRAEDTAVYYCARGGGYNWFDPWGQGTLVTVSS
VL: DIQMTQSPSSLSASVGDRVTITCRPSQTISKYLNWYQQKPGKAPKLLIYAASSLQSGVPSRFSGSGSGTDFTLTISSLQPEDFATYYCQQSYITPITFGRGTRLEIK
notes: VH and VL only
Consider B17, for which the Kd is 82.1 nM with human CD3e/d and 91.9 nM with human CD3e/g.

B18: mAb 81 (antibody, V domains shown)
VH: QVQLAESGGGVVQPGRSLRLSCAASGFTFSGYGMHWVRQAPGKGLDWVAIIYYDGKNKYYADSVKGRFTISRDNSKNTLYLQMNSLRAEDTAVYYCARGGGYNWFDPWGQGTLVTVSS
VL: DIQMTQSPSSLSASVGDRVTITCRPSQTISNYLNWYQQDPGKAPKLLIYAASSLQSGVPSRFSGSGSGTDFTLTISSLQPEDFATYYCQQSYSTPITFGRGTRLEIK
notes: VH and VL only
On to B18, for which the Kd was 101 nM in the test with human CD3e/d and 69.6 nM with human CD3e/g.

B19: mAb 222 (antibody, V domains shown)
VH: QVQLVESGGGVVQPGRSLRLSCAASGFTFSGYGMHWVRQAPGKGLEWVAIIYYNGKKEYYADSVKGRFTISRDNSKNTVYLQMNSLRAEDTAVYYCTRGEGYNWFDPWGQGTLVTVSS
VL: KIVMTQSPATLSVSPGERATLSCRASQSVSSNLAWYQQKPGQAPRLLIYGASTRATGIPARFSGSGSGTEFTLTISSLQSEDFAVYYCKQYNNWPLTFGGGTKVEIK
notes: VH and VL only
As to B19, the Kd was determined as 16 nM with human CD3e/d and 8.2 nM with human CD3e/g.

B20: mAb 224 (antibody, V domains shown)
VH: QVQLVESGGGVVQPGRSLRLSCAASGFTFSGYGMHWVRQAPGKGLEWVAIIYYNGKKEYYADSVKGRFTISRDNSKNMLYLQMNGLRAEDTAIYYCTRGEGYNWFDPWGQGTLVTVSS
VL: EIVMTQSPATLSVSPGERTTLSCRASQSVSNNLAWYQQKPGQAPRLLIYGASTRATGIPARFSGSGSGTEFTLTISSLQSEDFAVYYCQQYNNWPLTFGGGTKVEIK
notes: VH and VL only
On to B20, for which the values for the Kd with human CD3e/d and with human CD3e/g were 39 nM and 18 nM, respectively.

In general, Kd refers to the equilibrium constant for the complex coming apart. High values mean weaker binding, low ones tighter binding.
